Source: patent US20080274993

System: DSCR1-FLAG (human Down syndrome critical region 1, C-terminal FLAG epitope)
Sequence (chain, as listed by the source): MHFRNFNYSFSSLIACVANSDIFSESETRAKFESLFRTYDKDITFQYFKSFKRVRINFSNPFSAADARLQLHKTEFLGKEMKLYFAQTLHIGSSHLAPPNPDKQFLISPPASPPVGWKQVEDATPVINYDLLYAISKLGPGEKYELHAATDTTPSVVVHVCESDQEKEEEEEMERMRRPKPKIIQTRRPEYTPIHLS

calcineurin A (CnA)
NFATc1 phosphorylation status (Western blot of extracts of activated HUVECs): a shift from the dephosphorylated form of NFATc1 to the phosphorylated form in response to DSCR1
